“And” between values parts separate entries of the source, which are not always exact repeats. Identical values can stand only once.
What was measured:
[1] = Absorption and emission spectrum peak wavelengths of UV wavelength conversion substances; format: physicochemical
Human dermal fibroblasts [2] = assay: Restoration of cell activity decreased by prior UV irradiation (AlamarBlue); format: cell-based; details: pre-irradiation 400 mJ/cm^2 without substance, then UV 0 to 200 mJ/cm^2 through 0.4% or 2% C-phycocyanin; effect equivalent at both concentrations; FIG. 5
Description: (§1) 1. Human dermal fibroblasts and human skin keratinocytes purchased from Kurabo Industries Ltd. were used. A cell suspension (1 mL) stored in liquid nitrogen was thawed in a water bath (37° C.) to an extent that small ice pellets remained, and then diluted with 9 mL of warm medium. 2. The diluted suspension was mixed gently and then transferred to a T75 flask and incubated overnight at 37° C. 3. The next day, the medium was replaced with 10 mL of fresh medium. 4. The medium was replaced periodically (once every 2 days for fibroblasts and once every 2 to 3 days for keratinocytes) and cell proliferation was continued. Meanwhile, the cells were observed using a microscope, and it was confirmed that the cells grew in the correct form. 5. After the cells reached about 80% confluence, the cells were passaged. The cells were passaged by washing the cells once with 10 mL of warm PBS, adding 5 mL of warm trypsin to a T75 flask, covering the bottom of the flask with a trypsin solution, followed by aspirating at room temperature for 1 minute. 6. The flask was allowed to stand in an oven at 37° C. for (maximum) 2 minutes for fibroblasts and (maximum) 7 minutes for keratinocytes. The cells were observed using a microscope and confirmed to be small and oval. 7. Thereafter, the side of the T75 flask was lightly tapped to release the cells. […]

Human dermal fibroblasts [3] = assay: Cell activity (AlamarBlue) of cells UV-irradiated through a solution of UV wavelength conversion substance; format: cell-based; details: UV 0 to 100 mJ/cm^2, FIG. 3
Description: The UV wavelength conversion substances (3) and (4) were dispersed in alcohol to prepare 5% and 10% dispersions.
as §1, with “7.” for “7. Thereafter, the side of the T75 flask was lightly tapped to release the cells.”

Row | Substance | absorption spectrum peak wavelength [1] | emission spectrum peak wavelength [1] | cell activity after activity was once decreased by UV (Human dermal fibroblasts [2]) | cell activity (relative fluorescence intensity, AlamarBlue) (Human dermal fibroblasts [3]; 0.4% C-phycocyanin solution) | cell activity (relative fluorescence intensity, AlamarBlue) (Human dermal fibroblasts [3]; 2% C-phycocyanin solution, compared to no UV irradiation)
1 | B-phycoerythrin | 305 nm | 570 nm and 610 nm |  |  | 
2 | C-phycocyanin | 350 nm | 640 nm and 700 nm | cell activity was recovered | the decrease in cell activity was suppressed | the cell activity was even increased
